Assay results taken from patent publication US7700101B2, “Reagents and method for modulating Dkk-mediated interactions” (Wyeth, priority 2001, dated 2010).

Molecular target: LRP6 (Homo sapiens, UniProt O75581)
Assay: Cell-based TCF reporter high-throughput assay, LRP6 cDNA
Design: Full length LRP6 was isolated from the pED6dpc4 vector; expressed in transfected cells; host or cells: HOB-03-CE6 osteoblastic cells; U2OS osteosarcoma cells; HEK293
Settings: U2OS cells, Wnt1 or Wnt3a/Wnt1 co-transfected, FIG. 20
From the text: To develop a high throughput assay, the TCF-luciferase assay described in Example 7 was modified utilizing low level expression of endogenous LRP5/6 in U2OS and HEK293 cells. However, HOB-03-CE6 cells and any other cells which show a differential response to Dkk depending on whether LRP5, LRP6 or HBM are expressed. Using U2OS (human osteosarcoma) and HEK293 (ATCC) cells, the TCF-luciferase and tk-Renilla reporter element constructs were co-transfected along with Wnt3a/1 and Dkk. Wnt3a alone, by using endogenous LRP5/6, was able to stimulate TCF reporter gene activation. When Dkk, is co-transfected with Wnt3a/Wnt 1 and reporters (TCF-luci and tk-Renilla), DEkk represses reporter element activity. In addition, the TCF-luci signal is activated by Wnt3a/Wnt1 can be repressed by the addition of Dkk-enriched conditioned media to the cells containing Wnt3a/Wnt1 and reporters.
The Dkk-mediated repression of the reporter is dependent upon the concentration of transfected Dkk cDNA or on the amount of Dkk-conditioned media added. In addition, the Dkk-mediated reporter suppression can be altered by the co-transfection of LRP5, LRP6, and HBM cDNAs in the U2OS or HEK293 cells. In general, U2OS cells show greater sensitivity to Dkk-mediated reporter suppression than that in HEK-293 cells. […]

LRP6, sequence (O75581 20-1613): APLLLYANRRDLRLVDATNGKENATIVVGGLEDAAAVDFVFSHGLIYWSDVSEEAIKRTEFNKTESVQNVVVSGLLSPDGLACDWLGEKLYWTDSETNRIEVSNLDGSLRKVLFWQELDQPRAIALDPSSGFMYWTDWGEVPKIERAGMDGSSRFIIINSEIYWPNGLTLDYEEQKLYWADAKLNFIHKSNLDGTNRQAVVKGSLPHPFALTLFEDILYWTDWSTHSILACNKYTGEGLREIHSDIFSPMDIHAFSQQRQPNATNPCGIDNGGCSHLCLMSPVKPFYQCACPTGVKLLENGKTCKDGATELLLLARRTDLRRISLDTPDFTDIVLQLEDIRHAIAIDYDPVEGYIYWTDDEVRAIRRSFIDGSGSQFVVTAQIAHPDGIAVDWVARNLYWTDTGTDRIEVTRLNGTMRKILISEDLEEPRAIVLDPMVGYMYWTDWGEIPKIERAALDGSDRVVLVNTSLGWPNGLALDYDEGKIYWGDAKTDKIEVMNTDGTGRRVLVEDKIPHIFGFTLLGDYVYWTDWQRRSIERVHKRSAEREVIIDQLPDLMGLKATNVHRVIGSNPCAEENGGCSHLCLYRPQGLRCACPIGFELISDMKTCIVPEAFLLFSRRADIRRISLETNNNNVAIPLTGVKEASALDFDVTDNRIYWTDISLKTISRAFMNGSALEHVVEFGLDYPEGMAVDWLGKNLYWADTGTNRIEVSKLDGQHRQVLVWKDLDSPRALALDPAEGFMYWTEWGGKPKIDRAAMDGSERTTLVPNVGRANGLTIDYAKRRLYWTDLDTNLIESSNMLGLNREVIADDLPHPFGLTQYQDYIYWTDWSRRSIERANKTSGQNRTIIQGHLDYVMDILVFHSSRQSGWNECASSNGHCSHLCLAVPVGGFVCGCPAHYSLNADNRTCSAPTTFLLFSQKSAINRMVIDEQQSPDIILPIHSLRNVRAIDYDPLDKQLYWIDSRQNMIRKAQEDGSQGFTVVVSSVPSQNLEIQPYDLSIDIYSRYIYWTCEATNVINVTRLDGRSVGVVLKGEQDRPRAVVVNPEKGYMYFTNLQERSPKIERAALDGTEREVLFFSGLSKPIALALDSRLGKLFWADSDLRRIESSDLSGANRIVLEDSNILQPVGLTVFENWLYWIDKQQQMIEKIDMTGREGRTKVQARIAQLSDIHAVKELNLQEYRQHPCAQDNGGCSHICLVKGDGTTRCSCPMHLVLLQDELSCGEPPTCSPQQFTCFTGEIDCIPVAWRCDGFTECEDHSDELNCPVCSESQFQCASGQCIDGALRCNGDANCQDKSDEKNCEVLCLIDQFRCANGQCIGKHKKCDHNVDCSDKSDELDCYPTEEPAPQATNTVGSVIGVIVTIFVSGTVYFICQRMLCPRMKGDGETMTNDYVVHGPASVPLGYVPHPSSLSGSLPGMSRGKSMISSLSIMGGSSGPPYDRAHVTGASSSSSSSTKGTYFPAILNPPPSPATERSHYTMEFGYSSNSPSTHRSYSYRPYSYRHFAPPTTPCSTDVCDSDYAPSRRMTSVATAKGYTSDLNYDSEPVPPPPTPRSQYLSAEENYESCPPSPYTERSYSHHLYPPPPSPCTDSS

- Dkk-mediated repression of LRP6 signaling (TCF reporter): represses
- Dkk-mediated repression of LRP6 signaling (TCF reporter) (listed as Dkk1): maximal
Substance: Dkk-1: Dickkopf-1 protein, antagonist of the Wnt pathway; expressed from human cDNA (RNA or plasmid)
